Laboratory results from PMC9175631 (Journal of Virology, 2022).

How the values were obtained:
[1] = target: ZIKV prM/E (ZIKV SPH2015), E E162A (Zika virus (ZIKV SPH2015)); assay: flow cytometry on cells
[2] = target: ZIKV prM/E (ZIKV SPH2015), prM G59A (Zika virus (ZIKV SPH2015)); assay: flow cytometry on cells
[3] = target: ZIKV prM/E (ZIKV SPH2015), E G182A (Zika virus (ZIKV SPH2015)); assay: flow cytometry on cells
[4] = target: ZIKV prM/E (ZIKV SPH2015), E G100A (Zika virus (ZIKV SPH2015)); assay: flow cytometry on cells
[5] = target: T1, wild-type ZIKV prM/E (ZIKV SPH2015) (Zika virus, SPH2015, UniProt A0A0U3FSM8, strain); assay: flow cytometry on cells; conditions: one partner purified
T1 construct: also called WT prM/E; wild-type prM/E; source: HEK-293T, transfected, cells fixed and permeabilised

[6] = target: T2, ZIKV prM protein of heat-denatured ZIKV-VLP (Western band) (Zika virus, Suriname Z1106033, UniProt A0A0U4DG08, strain); assay: Western blot (Wes capillary electrophoresis); 27 or 240 ng ZIKV-VLP denatured at 70°C for 5 min without reducing agent, electrophoresed, probed with 10 μg/mL MAb; conditions: both partners purified
T2 construct: subunit of m13; also called precursor membrane protein

B1: anti-ZIKV MAb 278-11 (antibody, V domains shown)
VH: QSLEESGGGLVQPEGSLTLACTASEFDSSSNAMCWVRQAPGKGLEWIARIYSGSGTIYYANWARGRFTISKTSSTTVTLQMTSLTDADTATYFCARYNTGGFYYDLWGPGTLVTVSS
VL: ALVMTQTPASVEAAVGGTVTINCQASQRIGTNLAWYQQKPGQPPKVLIYKASTLASGVSSRFIGSGSGTDYTLTISGVECDDAATYYCQQGYSSNDADNTFGGGTEVVVK
notes: recombinant rabbit IgG; source: 293-6E cells, cotransfected, purified (MabSelect SuRe protein A)
antibody binding reactivity (% WT) [1]: 77.8 % WT
antibody binding reactivity (% WT) [2]: 28.5 % WT
antibody binding reactivity (% WT) [3]: 85.9 % WT
antibody binding reactivity (% WT) [4]: 95.1 % WT
binding result [5]: binds
binding result [6]: binds
